B1: TPR t1 (parent)
chain: GACCAAUCUGCCCUCAGAGCUCGAGAACAUCUUCGGAUGCAGAGGAGGCAGGCUUCGGUGGCGCGAUAGCGCCAACGUCCUCAACCUCCAAUGCAUCCCACCACAUGAUGAUGCCUGAAGAGCCUUGGUUUUUUG

Variants of: B1
Experiment: polymerase ribozyme fitness, log enrichment relative to wild type (log ratio); higher = more active; in vitro selection for triplet polymerase activity
Summary of the method: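 Fitness is a logarithmic measure of how a genotype enriched relative to the wild type, with replicate averages weighted by inverse variance. The logarithm uses base 2, and enrichment came from Illumina sequencing of input and output libraries. Those libraries were PCR-built, transcribed mutants of each subunit of a heterodimeric triplet polymerase ribozyme, passed through one triplicate in vitro selection round that included frozen incubation at −7 °C, gel excision of extended constructs and streptavidin-bead capture. Genotypes were kept only if they had ≥10 input reads and ≥1 read per output.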

Row | Variant | polymerase ribozyme fitness (log ratio)
1 | GACCAAUCUGCCCUCAGAGCUCGAGAACAUCUUCGGAUGGAGAGGAGGCAGGCUUCGGUGUCGCGAUAGCGCCAACGUCCUCAACCUCCAAUGCAUCCCACCACAUGAUGAUGCCUGAAGAGCCUUGGUUUUUUG [C40G G61U] | -2.33
2 | GACCAAUCUGCCCUCAGAGCUCGAGAACAUCUUCGGAUGCAGGGGAGGCAGUCUUCGGUGGCGCGAUAGCGCCAACGUCCUCAACCUCCAAUGCAUCCCACCACAUGAUGAUGCCUGAAGAGCCUUGGUUUUUUG [A43G G52U] | -2.44
3 | GACCAAUCUGCCCUCAGAGCUCGAGAACAUCUUCGGAUGCAGAGGAGGCAGGCUUCGGUGGCGCGAUAGUGCCAACGUCCACAACCUCCAAUGCAUCCCACCACAUGAUGAUGCCGGAAGAGCCUUGGUUUUUUG [C70U U81A U116G] | -3.38
4 | GACCAAUCUGCCCUCAGAGCUCGAGAAAAUCUUCGGAUGCAGAGGAGGCAGGCUGCGGUGGCGCGAUAGCACCAACGUCCUCAACCUCCAAUGCAUCCCACCACAUGAUGAUGCCUGAAGAGCCUUGGUUUUUUG [C28A U55G G71A] | -5.6
5 | GACCAAUCUGCCCUCAGAGCUCGAGAACAUCUUCGGAUGCAGAGGAGGCAGGCUUAGGUGGCGCGAUAGCGGCAACGUCCUCAACCUCCAAUGCAUCCCACCACAAGAUGAUGCCUGAAGAGCCUUGGUUUUUUG [C56A C72G U106A] | -1.22
6 | GACCGAUCUGCCCUCAGAGCUCGAGAACAUCUUCGGAUGCAGAGGAGGCAGGCUUCGGUGGCGCGAUAGCGCCAACGUCCUCAACCUCCAUUGCAUCCCACCACAUGAUGAUGCCUGAAGAGCCUUGGUUUUUUG [A5G A91U] | -1.78
7 | GACCAAUCUGCCCUCAGAGCUCGAGAACAUCUUCGGAUGCAGAGGAGGCAGGCUUCAGUGGCGCGAUAGCGCCAACGUCCUCAACCUCCAAUGGAUCCCACCACAUGAUGAUACCUGAAGAGCCUUGGUUUUUUG [G57A C94G G113A] | -3.76
8 | GACCAAUCUGCCCUCAGAGCUCGAGAACAUCUUCGGAUGCAGAGGAGGCAGGCUUCGCUGGCGCGAUAGCGCCAACGUCCUCAACCUCCAAUGCAUCCCACCACAUGAAGAUGUCUGAAGAGCCUUGGUUUUUUG [G58C U109A C114U] | -5.23
9 | GACCAAUCUGCCCUCAGAGCUUGAGAACAUCUUCGGAUGCAGAGGAGGCAGGCUUCGGUGGCGCGAUAGCGCAAACGUCCUCAACCUCCAAUGCAUCCCACCACAUGAUGAUGCCUGAAGAGCCUUGGUUUUUUG [C22U C73A] | -3.74
10 | GACCAAUCUGCCGUCAGAGCUCGAGAACAUCUUCGGAUGCAGAGGAGGCAGGCUUCGGUGGCGCGAUAGCGCCAACGUCCUCAACCUCCAAUGCAUCCCACCACAUGAUGAUGCCUGAUGAGUCUUGGUUUUUUG [C13G A119U C123U] | 1.58
11 | GACCGAUCUGCCCUCAGAGCUCGAGAACAUCUUCGGAUGCAGAGGAGGCAGGCUUCGGUGACGCGAUAGCGCCAACGUCCUCAACCUCCAAUGAAUCCCACCACAUGAUGAUGCCUGAAGAGCCUUGGUUUUUUG [A5G G61A C94A] | -0.707
12 | GACCAAUCUGCCCUCAGAGCUCGAGAACAUCUUCGGAUGCAGAGGAGGCAGUCUUCGGUGUCGCGAUAGCGCCAACGUCCUCAACCUCCAAUGCAUCCCACCACAUGAUGAUGCCUGGAGAGCCUUGGAUUUUUG [G52U G61U A118G U129A] | -1.85
13 | GACCAAUCUGCCCUCAGUGCUCGAGAACAUCUUCGGAUGCAGAGGAGGCAGGCUUCGGUGGCGCGAUAGCGCCAACGUCCUCAACCUCCAAUGCAUCCCACCACAUGAUGAUGCCUGAAGAGCCUUGGAUUUUUG [A18U U129A] | -4.3
14 | GACCAAUCUGCCCGCAGAGCUCGAGAACAUCUUCGGAUGCAGAGGAGGCAGGCUUCGGUGGUGCGAUAGCGCUAACGUCCUCAACCUCCAAUGCAUCCCACCACAUGAUGAUGCCUGAAGAGCCUUGGUUUUUUG [U14G C62U C73U] | -2.29
15 | GACCAAUCUGCCCUCAGAGCUCGAGAACAUCUUCGGAUGCAGAGGAGGCAGGCUUCGGUGGCGCGAUAGCGCCAACGUCCUCAACCUUCAAUGCAUCCCACCACAUGAUGAUGCCCGAAGAGCCUUGGUUUUUUG [C88U U116C] | 0.189
16 | GACCAAUCUGCCCUCAGAGCUCGAGAACAUCGUCGGAUGCAGAGGAGGCAGGCUUCGGCGGCGCGAUAGCGCCAACGUCCUCAACCUCCAAUGCAUCCCACCACAUGAUGAAGCCUGAAGAUCCUUGGUUUUUUG [U32G U59C U112A G122U] | -6.09
17 | GACCAAUCUGCCCUCAGAGCUCGAGAACAUCUUCGGAUGCAGAGGAGGCAGGCUUCGGUGGCGCGAUAGCGCCAACGUCCUCAACCUCCAAUGAAUUCCACCACAUGAUGAUGCCUGAAUAGCCUUGGUUUUUUG [C94A C97U G120U] | -1.04
18 | GACCAAUCUGCCCUCAGAGCUCGAGUACAUCUUCGGAUGCAGAGGAGGCAGGUUUCGGUGGCGCGAUAGCGCCAACGUCCUCAACCUCCAAUGCUUCCCACCACAUGAUGAUACCUGAAGAGCCUUGGUUUUUUG [A26U C53U A95U G113A] | -6.17
19 | GACCAAUCUGCCCUCAUAGCUCGAGAACAUCUUCGGAUGCAGAGGAGGAAGGCUUCGGUGGCGCGAUACCGCCAACGUCCUCAACCUCCAAUGCAUCCCACCACAUGACGAUGCAUGAAGAGCCUUGGUUUUUUG [G17U C49A G69C U109C C115A] | -7.12
20 | GACCAAUCUGCCCUCAGAGCUCGAGAACAUCUUCGGAAGCAGAGGAGGCUGGCUUCGGUGGCGCGAUAGCGCCAACGUCCUCAACCUCCAAUGCAUCCCACCACAUGAUGAUGCCUGAAGAGGCUUGGUUUUAUG [U38A A50U C123G U133A] | -0.425
21 | GACCAAUCUGCCCUCAGAGCUCGAGAACAUCUUCGGAUGCAGAGGAGGCAGGCUUCGGUGGAGCGAUAGCGCCAACGUCCUCAACCUCCAAUGCAUCCCACCACAUGAUGAUGCCUGAAGAGCCUUGGUCUUUUG [C62A U130C] | -1.71

Row | Variant | polymerase ribozyme fitness (log ratio)
22 | GACCAAUCUGCCCUCAGAGCUCGAGAACAUCUUCGGAUGCAGAGGAGGCAGGCUUCGGUGGCGCGAUGGCGCCAACGUCCUCAACCUCCAAUGCAGCCCACCACAUGAUGAUGCCUGAAGAGCCUUGGUUUUUUG [A68G U96G] | -3.68
23 | GACCAAUCUGCCCUCAGACCUCGAGAACAUCUUCGGAUGCAGAGGAGGCAGGCUUCGGUGGCGCGAUAGCGCCAACGCCCUCAACCUCCGAUGCAUCCCACCACAUGAUGAUUUCUGAAGAGCCUUGGUUUUUUG [G19C U78C A90G G113U C114U] | -0.588
24 | GACCAAUCUGCCCUCAGAGCUCGAGAACAUCUUCGGAUGCAGAGGAGGCAGGCUUCGGUGGCGCGAUAGCGCCAACGUCCUCAACCUCCAUUGCAUCCCACCACAUGAUGGUGCCUGAAGAGCCUUGGUUUUUUG [A91U A111G] | -1.26
25 | GACCAAUCUGCCCUCAGAGCUCGAGAACAUCUCCGGAUGCAGAGGAGGCAGGCUUCGGUGGCGCGAUAACGCCAACGUCCUCCACCUCCAAUGCACCCCACCACAUGAUGAUGCCUGAUGAGCAUUUGUUUUUUG [U33C G69A A83C U96C A119U C124A G127U] | -5.27
26 | GACCAAUCUGCCCUCAGAGCUCGAGAACAUCUUCGGAUGAAGAGUAGGCAGGCUUCGGUGGCACGAUAGCGCCAACGUCCUCAACCUCCAAUGCAUCCCACCACAUGAUGAUGCCUGAAGAGCCUUGGUUUUUUG [C40A G45U G63A] | -2.99
27 | GACCAAUCUGCCCUCAGAGCUCGAGAACAUCUUCGGAUGCAGAGGAGGCAGGUUUCGGUGGCGCGAUAGCGACAACGUCCUCAACCUCCAAUGCAUCCCACCACAUGAUGAUGCCUGAAGAGCCUUGGUUUUUUG [C53U C72A] | 0.143
28 | GACCAAUCUGCCCUCAGAGCUCGAGAUCAUCUUCGGAUGCAGAGGAUGCAGGCUUCGGUGGCGCGAUAGCGCCAACGUCCUCAACCUCCAAUGCAUCCCACCACAUGAUGAUGCCUGAAGAGCGUUGGUUUUUUG [A27U G47U C124G] | -1.62
29 | GACCAAUCUGCCCUCAGAGCUCGAGAACAUCUUCGGAUGCAGAGGAGGCAGGCUUCGGUGGCGCGAUAGCGCCAACGUCCUCAACCUCCAAUGCAUCCCACCACAUUAUGAUGCCUGAAGUGCCUUGGUUUAUUG [G107U A121U U132A] | -2.5
30 | GACCAAUCUGCCCUCAGAGCUCGAGAACAUCUUCGGAUGCAGAGGAGGCAUGCUUCGCUGGCGCGAUAGCGCCAACGUCCUCAACAUCCAAUGCAUCCCACCAUAUGAUGAUGCCUGAAGAGCCUUGGUUUUUUG [G51U G58C C86A C104U] | -3.76
31 | GACCAAUCUGCCCUCAGAGCUCGAGAACAUCUUCGGAUGCAGAGGAGGCAGGCUUGGGUGGCGCGAUAGGGCCAACGUCCUCAACCUCCAAUGCAUCCCACCACAUGAUGAUGCCUGAAGAGCCUUGGUUUUUUG [C56G C70G] | -3.88
32 | GAUCAAUCUGCCCUCAGAGCUCGAGAACAUCUUCGGAUGCAGAGAAGGCAGGCUUCGGUGGCGCGAUAGCACCAACGUUCUCAACCUCCAAUGCAUCCCACCACAUGAUGAUGCCUGAAGAGCCUUGGUUUUUUG [C3U G45A G71A C79U] | -1.81
33 | GACCAAUCUGCCCUCAGAGCUCGAGAUCAUCUUCGGAUGGAGAGGAGGCAGGCUUCGGUGGCGCGAUAGCGCCAACGUCCUGAACCUCCAAUGCAUCCCACCACAUGAUGAUGCCUGAAGAGCCUUGGUUUUUUG [A27U C40G C82G] | -5.92
34 | GACCAAUCUGCCCUCAGAGCUCGAGAACAUCUUCGGAUGCAGAGGAGGCAGGCUUCGGUGGCGCGAUAGCGUCAACGUACUCAACCUCCAAUGCAUCCCACCACAUGAUGAUGCCUGAAGAGCCUUGGUUUUUUG [C72U C79A] | -3.07
35 | GACCAAUCUGCCCUCAGAGCUCGAGAACAUCUUCGGAUGCAGAGGAGGCAGGCUUCGGUAGCGCGAUAGCGCCAACGUCCUCAACCUCCAAUGCAUCCCACCACAUGAUGAUGCCUGAAGAGCCUUGUUUUUUUG [G60A G128U] | -1.57
36 | GACCAAUCUGCCCUCAGAGCUCGAGGACAUCUUCGGAUGCAGAUGAGGCAGGCUGCGGUGGCGCGAUAGCGCCAACGUCCUCAACCUUCAAUGCAUCCCACCACAUGAUGAUGCCUGAAGAGCCUUGGUUUUUUG [A26G G44U U55G C88U] | -3.03
37 | GAUCCAUCUGCCCUAAGAGCUCGAGAACAUCUUCGGAUGCAGAGGAGGCAGGCUUCGGUGGCGCGAUACCGCCAACGUCCUCAACCUCCAAUGCAUCCCACCACAUGAAGAUGCCAGAAGAGCCUUGGUUUUUUG [C3U A5C C15A G69C U109A U116A] | -5.71
38 | GACCAAUCUGCUCUCAGAGCUCGAGAACAUCUUCGGAUGCAGAGGAGGCAGGCUUCGGUGGCGCGAUAGCGCCAACGUCCUCAACCUCCAAUACAUCCCACCACAUGAUGAUGCCUGAAGAGCCUUGGUUUUUUG [C12U G93A] | -0.0469
39 | GACCAAUCUGCCCUCAGAGUUCGAGAACAUCUUCGGAUGCAGAGGAGGCAGGAUUCGGUGGCGCGAUAGCGCCAACGUCCUCAACCUCCAAUGCAUCCCACCACAUGAUGAUGCCUGAAGAGCCUUGGUUUUUUG [C20U C53A] | -3.19
40 | GACCAAUCUGCUCUCAGAGCUCGAGAACAUCUUUGGAUGCAGAGGAGGCAGGCUUCGGUGGCGCGAUAGCGCCAACGUCCUCAGCAUCCAAUGCAUCCCACCACAUGAUGAUACCUGAAGAGCCUUGGUUUUUUG [C12U C34U A84G C86A G113A] | -6.74
41 | GACCAAUCUGCCCUCAGAGCUCGAGAACAUCUUCGGAUGCAGACGAGGCAGGCUUCGGUGGCGCGAUAACGCCAACGUCCUCAACCUCCAAUGCAUCCCACCACAUGAUGAUGCCUGAAGAGCCUUGGUUUUUUG [G44C G69A] | -4.37
42 | GACCAAUCUGCCCUAAGAGCUCGAGAACAUCUUCGGAUGCAUAGGAGGCAGGCUUCGGUGGCGCGAUAGCGCCAACGUUCUCAACCUCCAAUGCAUCCCACCACAUGAUGAUGCGUGAAGAGACUUGGUUUUUUG [C15A G42U C79U C115G C123A] | -5.36
